Values of other authors in paper PMC3985698.

Biological target: Bad (Homo sapiens) (UniProt Q92934)
Conditions: cited from earlier work

Sequence of UniProt Q92934 (Q92934 whole entry): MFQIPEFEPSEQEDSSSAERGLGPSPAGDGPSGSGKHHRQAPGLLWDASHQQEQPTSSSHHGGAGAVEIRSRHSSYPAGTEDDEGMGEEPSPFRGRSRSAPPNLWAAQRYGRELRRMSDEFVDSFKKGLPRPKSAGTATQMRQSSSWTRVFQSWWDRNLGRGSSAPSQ

Q: With Bcl-xL (from UniProt Q07817) as the substance, how does the Kd read?
A: 0.6 nM
